Legend:
trx2_yeast TRX2 = molecular target: T1, trx2_yeast TRX2 (UniProt P22803)
T1 sequence: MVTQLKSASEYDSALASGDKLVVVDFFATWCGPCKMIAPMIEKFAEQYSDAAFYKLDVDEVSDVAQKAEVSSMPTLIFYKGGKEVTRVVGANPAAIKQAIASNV

trx1_yeast TRX1 = molecular target: T2, trx1_yeast TRX1 (UniProt P22217)
T2 sequence: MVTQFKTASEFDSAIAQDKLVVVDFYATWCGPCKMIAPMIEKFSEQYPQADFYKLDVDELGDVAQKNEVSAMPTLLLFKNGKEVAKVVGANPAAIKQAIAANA

Substance: Phosphoadenosine phosphosulfate reductase (Saccharomyces cerevisiae) (from UniProt P18408) C245S
- effect of a mutation on the interaction (trx2_yeast TRX2): decreasing interaction
- effect of a mutation on the interaction (trx1_yeast TRX1): decreasing interaction

— IntAct's records for PubMed 16272220
